Measured values from patent US20180044401A1.
Values joined by “and” are separate entries in the source; they are usually repeats but may differ in a detail not shown here. Identical values can stand only once.

What was measured:
[1] = target: IgG-Fab prepared from anti-TNFα monoclonal antibody (Remicade); experiment: SPR Biacore, Fab immobilized at about 10000 RU, peptide at 25-200 nM, response 1 minute after addition
[2] = target: IgG-Fc of anti-TNFα monoclonal antibody (Remicade); experiment: SPR Biacore, Fc immobilized at about 10000 RU, peptide at 25-200 nM, response 1 minute after addition

inclination of approximate curve (binding response against peptide concentration) [1]: 0.5 and 0.4 and 0.6
inclination of approximate curve (binding response against peptide concentration) [2]: 0.5 and 0.4 and 0.6
B1: IgG-binding peptide of SEQ ID NO: 14 (designed binder)
chain: GPLGSTTYKLILNGKTLTGYTTAIADDAATAEKVLKQFANDNGIDGEWTYDDATKTFTVTE
